In general, IC50 refers to the concentration at which inhibition is half-maximal. Read a low IC50 as inhibition by little substance.

For five molecules, IC50 results are on record in patent publication US20250026859A1 (BEIGENE, published 2025).

B1: 77G10 (antibody, V domains shown)
VH: QSLEESGGRLVTPGTPLTLTCTASGFSLSSYYMSWVRQAPGKGLEYIGIISSSGSTDYASWAKGRFTISKTSTTVDLKITSPTTEDTATYFCARGWLDLWGQGTLVTVSS
VL: AAVLTQTPSPVSAAVGGTVSISCQSSKSVYNNNWLSWLQQKPGQPPKLLIHGASTLASGVPSRFKGSGSGTQFTLTISDVQCDDAATYYCAGGYSSSTDNAFGGGTEVVVK
notes: also called recombinant anti-DXd mAb 77G10
B2: 28C8 (antibody, V domains shown)
VH: QSVEESGGRLVTPGTPLTLTCTVSGFSLSSYAMNWVRQAPGKGLEYIGIIYDSGSTYYANWAKGRFTISKTSTTVDLKITSPTTEDTATYFCARGYLDIWGPGTLVTVSS
VL: B1 VL with N33K, H51Y, Q72E, S96I, T98S
notes: also called recombinant anti-DXd mAb 28C8
B3: 29D2 (antibody, V domains shown)
VH: B2 VH with V23A, S55T, N60S, G95A, Y96A
VL: B1 VL with S25A, L38V, K41T, H51Y, S95G, T98S, K111E
notes: also called recombinant anti-DXd mAb 29D2
B4: 76G4 (antibody, V domains shown)
VH: QSVEESGGRLVTPGTPLTLTCTASGFSLSSYYMFWVRQAPGKGLEYIGYIGDGGYTSYATWAKGRFTISKTSSTTVDLKITSPTTEDTATYFCARDGFTSGSIWGPGTLVTVSS
VL: B1 VL with A13T, S20T, S28N, L38F, H51Y, A53T, T98S, A101G, G104A
notes: also called recombinant anti-DXd mAb 76G4
B5: 35D6 (antibody, V domains shown)
VH: QSVEESGGRLVTPGTPLTLTCTVSGFSLSSHWMSWVRQAPGKGLEWIGIISSSGSTDYVSWAKGRFTISKTSTTVDLKITSPTTEDTATYFCARDLGYSTNIWGPGTLVTVSL
VL: AYDMTQTPASVEVTVGGTVTIKCQASQSIGSYLAWYQQKPGQRPKLLIYDASTLASGVSSRFKGSGSGTQFTLTISGVECADAATYYCQQGYSSSGVDNAFGGGTEVVVK
notes: also called recombinant anti-DXd mAb 35D6

Substitutions are numbered along the chain they refer to.

The target of the assay is T1, DXd-conjugated antigen.
T1 construct: also called DXd conjugated antigens
In words: competitive ELISA: coated DXd-conjugated antigen, antibody titrated with 1 ug/ml free biotin-DXd (small molecule) as competitor, streptavidin-HRP detection.
Molecule B1 displayed an IC50 of 0.953 ng/mL.
The figure for B2 is 1.58 ng/mL; for B3 it is 1.26 ng/mL; for B4 it is 0.753 ng/mL.
In the case of B5 it was 5.24 ng/mL.
